Measurements reported in US20100160234A1.

Molecular target: Native eIF4E of High Five (Trichoplusia ni) insect cells (Trichoplusia ni)
Assay: cell-based or functional assay

B1: his-tagged PVY VPg protein (protein, not shown: small tags and cut ends)
chain: GKNKSKRIQALKFRHARDKRAGFEIDNNDDTIEEFFGSAYRKKGKGKGTTVGMGKSSRRFINMYGFDPTEYSFIQFVDPLTGAQIEENVYADIRDIQERFSEVRKKMVENDDIEMQALGSNTTIHAYFRKDWSDKALKIDLMPHNPLKVCDKTNGIAKFPERELELRQTGPAVEVDVKDIPAQEVEHE
- eIF4E in cytoplasm (%), 12 h p.i., cell fractionation, Western blot and densitometry: 53.5%
- eIF4E in cytoplasm (%), 24 h p.i., cell fractionation, Western blot and densitometry: 81.3%
- eIF4E in cytoplasm (%), 36 h p.i., cell fractionation, Western blot and densitometry: 83.3%
- eIF4E in cytoplasm (%), 48 h p.i., cell fractionation, Western blot and densitometry: 74.1%
- eIF4E in nucleus (%), 12 h p.i., cell fractionation, Western blot and densitometry: 46.5%
- eIF4E in nucleus (%), 24 h p.i., cell fractionation, Western blot and densitometry: 18.7%
- eIF4E in nucleus (%), 36 h p.i., cell fractionation, Western blot and densitometry: 16.7%
- eIF4E in nucleus (%), 48 h p.i., cell fractionation, Western blot and densitometry: 25.9%
